Consider two molecules from article PMC12328215, “Interactions between TTYH2 and APOE facilitate endosomal lipid transfer” (Nature, 2025).

In the test the target is T1, human TTYH3 (Tweety homologue 3), detergent-solubilized and purified (human, UniProt Q9C0H2).
T1 construct: Tweety homologue 3 (TTYH3), human; gene (Genscript) cloned into the vector pcDXC3MS; Homodimer; source: HEK293 GNTI− cells, transiently transfected, purified in GDN (Strep-Tactin, SEC)
The experiment in a line: SEC; TTYH2 or TTYH3 with a 1.6 molar excess of sybody on a Superose 6 Increase 5/150 GL column; sybody in the TTYH peak fractions detected by SDS–PAGE. To be noted: both partners purified. In general terms: In gel filtration, larger molecules generally elute earlier.

T1 sequence (Q9C0H2 2-523): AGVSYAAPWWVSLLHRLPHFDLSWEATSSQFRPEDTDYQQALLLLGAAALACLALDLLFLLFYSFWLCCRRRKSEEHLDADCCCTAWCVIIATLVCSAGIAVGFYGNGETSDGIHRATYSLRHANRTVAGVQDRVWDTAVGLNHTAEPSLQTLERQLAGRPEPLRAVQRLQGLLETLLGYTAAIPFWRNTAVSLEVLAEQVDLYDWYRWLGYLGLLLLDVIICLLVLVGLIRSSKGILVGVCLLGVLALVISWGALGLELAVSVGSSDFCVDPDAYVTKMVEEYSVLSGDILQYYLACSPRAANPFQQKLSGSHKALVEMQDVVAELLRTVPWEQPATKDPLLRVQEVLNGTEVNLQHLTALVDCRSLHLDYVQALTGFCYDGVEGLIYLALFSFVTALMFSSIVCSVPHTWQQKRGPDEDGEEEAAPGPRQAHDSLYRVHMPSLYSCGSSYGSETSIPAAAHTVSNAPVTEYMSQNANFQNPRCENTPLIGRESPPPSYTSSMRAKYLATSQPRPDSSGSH

B1: sybody Sb2^TTYH2 (VHH)
VHH: QVQLVESGGGLVQAGGSLRLSCAASGFPVTNDSMHWYRQAPGKEREWVAAIASQGRGTAYADSVKGRFTISRDNAKSTVYLQMNSLKPEDTAVYYCNVKDYGYDLQWYDYWGQGTQVTVS
notes: synthetic nanobody from the loop library (medium CDR3); For force spectroscopy immobilised on glass by the protocol used for APOE, or added soluble at 20–50 µM; also called Syb2; unlabelled Sb2; source: E. coli MC1061, periplasmic expression, purified (Ni-NTA, SEC)
Turning to B1, the binding result is “no binding”.

B2: sybody Sb1^TTYH2 (VHH)
VHH: QVQLVESGGGLVQAGGSLRLSCTASGFPVAFAQMKWYRQAPGKEREWVAAIWSMGNETTYADSVKGRFTISRDNAKNTVYLQMNSLKPEDTAVYYCAVEVGYGYHGQGTQVTVS
notes: synthetic nanobody from the concave library (short CDR3); also called Syb1; source: E. coli MC1061, periplasmic expression, purified (Ni-NTA, SEC)
On to B2, for which the binding result is given as “no binding”.
